The results in this text go back to patent US20210373004A1 (BIOASTER, published 2021).

For assay [1], the target named is T1, Flag-mCherry-ColErw-Cys-6His (Pectobacterium carotovorum). The assay can be described thus: EIA 8 plex n° 1: colicin coated at 100 nM, Im-RLuc8 alone at 100 nM, luciferase signal (FIG. 3, light grey bars).
In assay [2] the target is T1, Flag-mCherry-ColErw-Cys-6His. Put plainly: EIA 8 plex n° 2: colicin coated at 100 nM, Im-RLuc8 alone at 100 nM, luciferase signal (FIG. 4, light grey bars).
For assay [3], the target named is T2, Flag-EmGFP-ColE7-6His (Escherichia coli).
T2 construct: also called Colicin E7
Put plainly: EIA 8 plex n° 1: colicin coated at 100 nM, Im-RLuc8 at 100 nM, luminescence; light bar alone, dark bar with the 7 other unfused Im proteins.

Assay [4] deals with T3, Flag-mCherry-ColE9-6His (Escherichia coli).
T3 construct: also called Colicin E9
The description is as above.

Assay [5] concerns the target T4, Flag-mCherry-ColAP41-Cys-6His (Pseudomonas aeruginosa AP41). Described as above.
Assay [6] deals with T5, Flag-EmGFP-ColE2-6His (Escherichia coli).
T5 construct: Coated on the plate or sprayed on the membrane; also called Colicin E2
The description is as above.

The target of assay [7] is T6, Flag-mCherry-ColSyr-Cys-6His (Pseudomonas syringae B728A). Described as above.
Another assay addresses T7, Flag-mCherry-ColE8-6His (Escherichia coli).
T7 construct: also called Colicin E8
The assay is described as above.

In assay [8] the target is T8, Flag-mCherry-ColKhan-Cys-6His (Photorhabdus khanii). The description is as above.
Assay [9] has as its target T9, Flag-mCherry-ColLeaf-Cys-6His (Pseudomonas sp Leaf83). The assay can be described thus: EIA 8 plex n° 2: colicin coated at 100 nM, Im-RLuc8 at 100 nM, luminescence; light bar alone, dark bar with the 7 other unfused Im proteins.
The target in assay [10] is T4, Flag-mCherry-ColAP41-Cys-6His. Put plainly: EIA 8 plex n° 1: colicin coated at 100 nM, Im-RLuc8 alone at 100 nM, luciferase signal (FIG. 3, light grey bars).
Assay [11] shares this target. The assay can be described thus: EIA 8 plex n° 2: colicin coated at 100 nM, Im-RLuc8 alone at 100 nM, luciferase signal (FIG. 4, light grey bars).
Assay [12] concerns the target T1, Flag-mCherry-ColErw-Cys-6His. The assay can be described thus: EIA 8 plex n° 1: colicin coated at 100 nM, Im-RLuc8 at 100 nM, luminescence; light bar alone, dark bar with the 7 other unfused Im proteins.
Assay [13] has as its target T8, Flag-mCherry-ColKhan-Cys-6His. The assay can be described thus: EIA 8 plex n° 2: colicin coated at 100 nM, Im-RLuc8 at 100 nM, luminescence; light bar alone, dark bar with the 7 other unfused Im proteins.
For assay [14], the target named is T9, Flag-mCherry-ColLeaf-Cys-6His. Put plainly: EIA 8 plex n° 2: colicin coated at 100 nM, Im-RLuc8 alone at 100 nM, luciferase signal (FIG. 4, light grey bars).
Assay [15] has as its target T3, Flag-mCherry-ColE9-6His. The assay can be described thus: EIA 8 plex n° 2: colicin coated at 100 nM, Im-RLuc8 at 100 nM, luminescence; light bar alone, dark bar with the 7 other unfused Im proteins.
Assay [16] concerns the target T4, Flag-mCherry-ColAP41-Cys-6His. The description is as above.
Assay [17] has as its target T5, Flag-EmGFP-ColE2-6His. Described as above.
Assay [18] addresses T6, Flag-mCherry-ColSyr-Cys-6His. Described as above.
Assay [19] deals with T1, Flag-mCherry-ColErw-Cys-6His. Described as above.
Assay [20] concerns the target T2, Flag-EmGFP-ColE7-6His. The assay can be described thus: EIA 8 plex n° 1: colicin coated at 100 nM, Im-RLuc8 alone at 100 nM, luciferase signal.
Assay [21] deals with T6, Flag-mCherry-ColSyr-Cys-6His. The assay can be described thus: EIA 8 plex n° 1: colicin coated at 100 nM, Im-RLuc8 alone at 100 nM, luciferase signal (FIG. 3, light grey bars).
For assay [22] the target is unchanged. Put plainly: EIA 8 plex n° 2: colicin coated at 100 nM, Im-RLuc8 alone at 100 nM, luciferase signal (FIG. 4, light grey bars).

A value given as a limit tells only on which side of the number the result lay.

B1: Myc-RLuc8-ImErw-Avitag-6His (other)
chain: MGGEQKLISEEDLGGSASKVYDPEQRKRMITGPQWWARCKQMNVLDSFINYYDSEKHAENAVIFLHGNATSSYLWRHVVPHIEPVARCIIPDLIGMGKSGKSGNGSYRLLDHYKYLTAWFELLNLPKKIIFVGHDWGAALAFHYAYEHQDRIKAIVHMESVVDVIESWDEWPDIEEDIALIKSEEGEKMVLENNFFVETVLPSKIMRKLEPEEFAAYLEPFKEKGEVRRPTLSWPREIPLVKGGKPDVVQIVRNYNAYLRASDDLPKLFIESDPGFFSNAIVEGAKKFPNTEFVKVKGLHFLQEDAPDEMGKYIKSFVERVLKNEQKLPGGSNLKEKLEDYTEAEFISYLKEFFDNPMGLRGKELETHLDSLVEHFDKIVFHPEGNGLIFYPPDERDDSPEGVLNEIKRWRKSQGLPLFKDSKGGSGGSGLNDIFEAQKIEWHELEGGGSHHHHHH
notes: Immunity protein fused to the luciferase RLuc8 as reporter; added in solution; also called ImErw-Rluc8
Turning to B1, the values for the RLU in [1] and in assay [2] were greater than 2e+06 RLU and greater than 2.4e+06 RLU, respectively. The binding result (with Flag-EmGFP-ColE7-6His [3]; with Flag-mCherry-ColE9-6His [4]; in [5]; with Flag-EmGFP-ColE2-6His [6]; in assay [7]; with Flag-mCherry-ColE8-6His) was “no binding (tested: 100 nM)” throughout. Moreover, the binding result in assay [8] is “binds”; in assay [9] it was “no binding (tested: 100 nM)”.

B2: Myc-RLuc8-ImAP41-Avitag-6His (other)
chain: MGGEQKLISEEDLGGSASKVYDPEQRKRMITGPQWWARCKQMNVLDSFINYYDSEKHAENAVIFLHGNATSSYLWRHVVPHIEPVARCIIPDLIGMGKSGKSGNGSYRLLDHYKYLTAWFELLNLPKKIIFVGHDWGAALAFHYAYEHQDRIKAIVHMESVVDVIESWDEWPDIEEDIALIKSEEGEKMVLENNFFVETVLPSKIMRKLEPEEFAAYLEPFKEKGEVRRPTLSWPREIPLVKGGKPDVVQIVRNYNAYLRASDDLPKLFIESDPGFFSNAIVEGAKKFPNTEFVKVKGLHFLQEDAPDEMGKYIKSFVERVLKNEQKLPGGSDIKNNLSDYTESEFLEIIEEFFKNKSGLKGSELEKRMDKLVKHFEEVTSHPRKSGVIFHPKPGFETPEGIVKEVKEWRAANGLPGFKAGLEGGSGGSGLNDIFEAQKIEWHELEGGGSHHHHHH
notes: Immunity protein fused to the luciferase RLuc8 as reporter; added in solution; also called ImAP41-Rluc8
For the molecule B2, the RLU is greater than 2e+06 RLU in assay [10] and greater than 2.4e+06 RLU in assay [11]. In addition, the binding result (with Flag-EmGFP-ColE7-6His [3]; with Flag-mCherry-ColE9-6His [4]; with Flag-EmGFP-ColE2-6His [6]; in assay [7]; with Flag-mCherry-ColE8-6His; in assay [12]) was “no binding (tested: 100 nM)” in each case. Moreover, the binding result in assay [13] and in assay [9] was “no binding (tested: 100 nM)” each time.

B3: Avitag-RLuc8-ImLeaf-6His (other)
chain: MGLNDIFEAQKIEWHEGGSGGSGGSASKVYDPEQRKRMITGPQWWARCKQMNVLDSFINYYDSEKHAENAVIFLHGNATSSYLWRHVVPHIEPVARCIIPDLIGMGKSGKSGNGSYRLLDHYKYLTAWFELLNLPKKIIFVGHDWGAALAFHYAYEHQDRIKAIVHMESVVDVIESWDEWPDIEEDIALIKSEEGEKMVLENNFFVETVLPSKIMRKLEPEEFAAYLEPFKEKGEVRRPTLSWPREIPLVKGGKPDVVQIVRNYNAYLRASDDLPKLFIESDPGFFSNAIVEGAKKFPNTEFVKVKGLHFLQEDAPDEMGKYIKSFVERVLKNEQGGGSTAGGGGSKRQFADYTEAEFIAFMEDIFRENEAETDDRLDVLLDQFREITGHPDGTDLIYYCESDAECTPERITQKVKSWRAANGLPGFKSTLEGGGSHHHHHH
notes: Immunity protein fused to the luciferase RLuc8 as reporter; added in solution; also called ImLeaf-Rluc8
In turn, B3 showed an RLU in assay [14] greater than 2.4e+06 RLU. Also, the binding result (with Flag-mCherry-ColE9-6His [15]; in [16]; with Flag-EmGFP-ColE2-6His [17]; in assay [18]; in assay [13]; in assay [19]) was “no binding (tested: 100 nM)” throughout.

B4: Myc-RLuc8-ImSyr-Avitag-6His (other)
chain: MGGEQKLISEEDLGGSASKVYDPEQRKRMITGPQWWARCKQMNVLDSFINYYDSEKHAENAVIFLHGNATSSYLWRHVVPHIEPVARCIIPDLIGMGKSGKSGNGSYRLLDHYKYLTAWFELLNLPKKIIFVGHDWGAALAFHYAYEHQDRIKAIVHMESVVDVIESWDEWPDIEEDIALIKSEEGEKMVLENNFFVETVLPSKIMRKLEPEEFAAYLEPFKEKGEVRRPTLSWPREIPLVKGGKPDVVQIVRNYNAYLRASDDLPKLFIESDPGFFSNAIVEGAKKFPNTEFVKVKGLHFLQEDAPDEMGKYIKSFVERVLKNEQKLPGGSIFKEKIEDYTEEEFLEFLKGLSSEYSQLHGDEFIKHMDRSVEHFVKITEHPAQTDVIFYPEEGQEDTPEGILKVIKEWRAKNGKPGFKSGGSGGSGLNDIFEAQKIEWHELEGGGSHHHHHH
notes: Immunity protein fused to the luciferase RLuc8 as reporter; added in solution; also called ImSyr-Rluc8
On to B4, for which the RLU in the assay with Flag-EmGFP-ColE7-6His [20] was greater than 100000 RLU; in assay [21] it was greater than 2e+06 RLU; in assay [22], greater than 2.4e+06 RLU. Also, the binding result (with Flag-mCherry-ColE9-6His [4]; with Flag-EmGFP-ColE2-6His [6]; with Flag-mCherry-ColE8-6His; in assay [12]; in assay [13]; in assay [9]) was “no binding (tested: 100 nM)” in each case.
